± gives the uncertainty stated by the source.
experiment: amyloid nucleation score (Sup35N fusion, yeast selection) (log enrichment); library NNK3; higher = more nucleation; inactive = no reads after selection
In short: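 Nucleation score is defined as the DiMSum log enrichment of output over input reads, with centring on the mode score of non-aggregating sequences. A minimum of 100 input reads was required for each sequence. Reads came from Illumina sequencing of plasmid inserts from psi-negative yeast expressing Sup35N fused to peptides of 20 random codons, induced with 100 μM copper sulfate for 24 hours and grown 7 days at 30°C on medium lacking adenine and uracil.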

Substance | amyloid nucleation score
FFSCFCLLMRY | inactive
FFSDRLTSTGSMES | inactive
FFSSGVVRQAYVLVAEDNVS | inactive
FFSTQAFLDLAHTRFVNPLG | inactive
FFTMSKI | inactive
FFVHRCIYVNGWKGQTHSSQ | inactive
FFVLLLFVRVYKIALNFMMG | inactive
FFVMCARGHTMRSYTFFVK | inactive
FFYSAFENMMMALLKMRKFH | inactive
FGEVNIAYRMIMRMSGQGGK | 0.998 ± 0.17
FGEYKMISVEYLVLEIVRYM | inactive
FGFCWLFNLCYLGNVVYAVM | inactive
FGFYSCTLGG | inactive
FGGAYFVTPGAYFVWYSFLG | 0.222 ± 0.31
FGMKTYRLQIGYNITVCHSI | -0.603 ± 0.58
FGNINLCMCFWKMEIECLTR | inactive
FGTNVLYAFM | inactive
FGVSFKYFCVQEQLAKDSVA | inactive
FGVVWGSKLFCRFGSVTIYP | inactive
FGYPMPIRNVSVVPVLFYKG | inactive
FHEFSTSFWSFEASLLTARL | inactive
FHFFYYTLFNCHHGLFTSFF | inactive
FHFYGFCLYAYFSAIEDQNC | 2.06 ± 0.071

Substance | amyloid nucleation score
FHMFYRFSGDNGPKKFH | 0.607 ± 0.26
FHMIECGVYAKHLGHCTRYI | -0.079 ± 0.33
FHNVGLI | 1.77 ± 0.093
FHPFMCSYGSGWDGRLVHCG | inactive
FHTFSLTSINMVLLSFVVRF | inactive
FHTLLLCSDVSSARWFADWF | inactive
FHTWISGLPEVHWGVLEVRW | inactive
FHYGLSWLSSTKGSYVFYIG | inactive
FIALIYVIIPDIEGSVYVSN | inactive
FIGGVVTVTVYNNTVESGLK | 1.65 ± 0.13
FIGVCNLVWMELPLDAMRFF | 1.36 ± 0.11
FIILKYGLYM | 0.507 ± 0.14
FIKHVRIKFTWSVSREF | inactive
FIQWQSESVYIAYSNFTSSM | inactive
FIRGVSYDFIDRSIILFLEV | inactive
FIRLFEYMRGLPLLVKNDSV | 0.234 ± 0.72
FIRLYDKIRWYNDGNWVWHV | inactive
FIRMVGRLKKWRVS | inactive
FIRTGELLFLVEWPLVCYTK | inactive
FISRSGAVGRRS | inactive
FIVVDMDSYRAVDGARVFVE | inactive
FIVYLSCPWVRRFIVVMEFM | inactive
FIYDEQSSDSVV | inactive

Substance | amyloid nucleation score
FKAPWLSGP | inactive
FKDCED | -0.328 ± 0.6
FKGLVVMKGLLNMIGGGACH | 0.27 ± 0.4
FKMPTIRLVLK | inactive
FKSAFWLIM | inactive
FKYLWADREVNVGQKHSVIG | -0.174 ± 0.7
FLACSDVVYSDN | inactive
FLAGDWSKGFNKYYTYYISK | inactive
FLCMSLATRMLTFRLFPTNL | inactive
FLDPYSHRLSAKALYM | inactive
FLDVALLKSMNCSASREVGV | inactive
FLGAVRLYSPAHTY | inactive
FLIDNCYWYPHCAPIVAPWL | inactive
FLIWGKQPWTRKLLGTIVPV | inactive
FLLGPSLTPNSMG | inactive
FLLMC | inactive
FLLMLFVSGVRLFDYRRFWH | inactive
FLLVMYT | 0.167 ± 0.25
FLLVNLTVITRACEKLPMRP | -0.277 ± 1.1
FLMDNMVSGIVFFTSSVIRG | inactive
FLNLHTVCC | inactive
FLNRSTAIWKYRLIAQRVGD | inactive
FLPWDFKASKKEPYSKYMNL | inactive

Substance | amyloid nucleation score
FLRLCLVVRLRCVVISMGNY | inactive
FLRNIFDGRTWTFKDSNMSH | inactive
FLRSSVCA | inactive
FLSFSFYLVYRRKSVRFQ | inactive
FLSYTPRATGYHFFRLSIFC | inactive
FLTFRPSLSTRHLFLMESHT | inactive
FLTLSSFHRPMVE | inactive
FLVWDFRSERKRKKI | inactive
FLVYLRR | 1.17 ± 0.11
FLWVAANLDFVYDEREHIRG | inactive
FLYAFLPWRCVKNFFCSKVL | inactive
FLYYLLMLVRVRCFEQVVIV | inactive
FMEHLLYE | inactive
FMIFDWVTYIKVTVKCWW | inactive
FMLCLMATLRKGLDANLWVT | inactive
FMPANAFWTKFCSARNRLYI | -0.135 ± 0.57
FMRDD | inactive
FMRGTVLKTRNYRFRQAHEE | inactive
FMTFPRASADRDFFSRVLHL | inactive
FMTIIKRWDVWNFCRSSGAV | inactive
FMVWYREMDLVLVAQREEYK | inactive
FMYRTDRYHVRGVITWRLSM | inactive
FMYSGAVSDVRLNSSGDSLG | -0.516 ± 0.96

Substance | amyloid nucleation score
FNARLFISLLIKDRK | inactive
FNATCVVGHQVSVCNPWDAH | inactive
FNFLVWAQ | inactive
FNGICRWTCYSCS | 2.09 ± 0.08
FNGMACVFRISFVALRLQGG | -0.892 ± 1.7
FNISIRVDIVISICNNVVFN | 0.596 ± 0.19
FNKLEVRNRQEWLSGRFWDH | -0.091 ± 0.36
FNKVRWSRVTGTFWKVLIRV | inactive
FNMFVKNN | inactive
FNNFSYCHTDARVWVMATVM | inactive
FNSYKGNVSFAGW | -0.155 ± 1.4
FNTRQSNLKDDMVSFHDSDL | inactive
FPFLSSSSDSSEMFILKLFD | inactive
FPICWLRVVDLALFKWMYNF | inactive
FPIWLLDCKEDCVLSDVAAS | inactive
FPRVTVPLVFSSIQESTSSE | inactive
FPSIFCPCFLTIYMFGWIVS | inactive
FPVARAIATMGWHIGALFLN | inactive
FPWYAIFSHSMLCVDIQDF | 0.958 ± 0.2
FPYSKIRCLCDGRNDRLGGL | -0.043 ± 0.67
FQIKT | 0.041 ± 0.81
FQKQLASRCTSWSWTRWLVQ | inactive
FQSHLNIVIVYIRLNYTVLL | -0.394 ± 0.63

Substance | amyloid nucleation score
FRCFYGTRSWRKECGESAFL | inactive
FRDVPGLLCR | inactive
FRGFIAVDAVGMVTNYIIKY | 1.89 ± 0.062
FRIIQVVRYDMMGTRLDMYQ | 0.938 ± 0.19
FRLRYRYFCRGRGCMDDLEY | -0.288 ± 0.8
FRLYFYYYSNLFRHFCYNKS | inactive
FRNCRSWATCTAKARLHCPS | 0.812 ± 0.16
FRSNGSIWVRGSETFTIAP | inactive
FRSTCTFHCMERSRLRISPK | inactive
FRVAAMAISGTISCQYFQGL | 0.739 ± 0.17
FRWHLCRFCWKRIFASTMLA | inactive
FRWNNCGSMVRISTPSYSFL | inactive
FRYEILTI | 0.912 ± 0.12
FSALQWGSRTYIFVYSGNMS | 0.658 ± 0.24
FSAMTPSGRWHDRSRSDVIN | inactive
FSCDIMRPTKLGYSFDGLLL | inactive
FSCIMVRCYFR | inactive
FSCPDLGRGYVIS | inactive
FSCSYTMGQCEASCVWQLKY | 0.36 ± 0.35
FSFCIGRMCDLQALTASCLN | inactive
FSGTIGILFFMTWSTVLPWG | inactive
FSHGFSIYRLKKT | inactive
FSIAMFQANSGYASR | 1.25 ± 0.14

Substance | amyloid nucleation score
FSIIKFYWAEYWARRGEIVR | inactive
FSKVTFHSCGIQCERQVKNN | inactive
FSLRLPYFA | inactive
FSLRNICSGLWILSVIAFPI | inactive
FSNSRDSILWHRFGRICASY | 1.58 ± 0.12
FSPRKSLASLGITVVVDHCI | -0.057 ± 0.81
FSRFIRQ | 0.677 ± 0.15
FSRSTTDVSINSGWKM | inactive
FSSIMSFVVYSRKLLEVTSP | inactive
FSSLGANYNHEILKGCGVGS | inactive
FSSMF | inactive
FSSMVNVYSLLKVFF | inactive
FSVANGHRVM | inactive
FSVQAIWFVMSLNRFLGKGR | inactive
FSVRIKYI | inactive
FSVSDSFP | inactive
FSWSLSLLHIPYKQWRGRWV | inactive
FTAFMFS | inactive
FTCPASST | inactive
FTMSMYKGFRRCA | inactive

From the supplement of paper PMC12042874
